Experimental data reported in US20250313627A1.

Assays:
[1] = molecular target: human ROR1 (Receptor Tyrosine Kinase-Like Orphan Receptor 1) on the cell surface (human) (UniProt Q01973); assay: flow cytometry, LS174T cells expressing human ROR1 (low density)
[2] = molecular target: human ROR1 (Receptor Tyrosine Kinase-Like Orphan Receptor 1) on the cell surface (human) (UniProt Q01973); assay: flow cytometry, B16-F10 cells expressing human ROR1 (high density)
[3] = molecular target: human ROR1 (Receptor Tyrosine Kinase-Like Orphan Receptor 1) on the cell surface (human) (UniProt Q01973); assay: as above; remark: listed apart in the source
[4] = molecular target: human ROR1 (Receptor Tyrosine Kinase-Like Orphan Receptor 1) on the cell surface (human) (UniProt Q01973); assay: as above; remark: listed apart in the source
[5] = molecular target: human ROR1 (Receptor Tyrosine Kinase-Like Orphan Receptor 1) on the cell surface (human) (UniProt Q01973); assay: as above; remark: listed apart in the source
[6] = molecular target: human ROR1 (Receptor Tyrosine Kinase-Like Orphan Receptor 1) on the cell surface (human) (UniProt Q01973); assay: as above; remark: listed apart in the source
[7] = molecular target: human ROR1 (Receptor Tyrosine Kinase-Like Orphan Receptor 1) on the cell surface (human) (UniProt Q01973); assay: flow cytometry, LS174T cells expressing human ROR1 (low density); remark: listed apart in the source
[8] = molecular target: human ROR1 (Receptor Tyrosine Kinase-Like Orphan Receptor 1) on the cell surface (human) (UniProt Q01973); assay: flow cytometry, B16-F10 cells expressing human ROR1 (high density); remark: listed apart in the source

Chain of human ROR1 (Receptor Tyrosine Kinase-Like Orphan Receptor 1) on the cell surface (human) (Q01973 30-937): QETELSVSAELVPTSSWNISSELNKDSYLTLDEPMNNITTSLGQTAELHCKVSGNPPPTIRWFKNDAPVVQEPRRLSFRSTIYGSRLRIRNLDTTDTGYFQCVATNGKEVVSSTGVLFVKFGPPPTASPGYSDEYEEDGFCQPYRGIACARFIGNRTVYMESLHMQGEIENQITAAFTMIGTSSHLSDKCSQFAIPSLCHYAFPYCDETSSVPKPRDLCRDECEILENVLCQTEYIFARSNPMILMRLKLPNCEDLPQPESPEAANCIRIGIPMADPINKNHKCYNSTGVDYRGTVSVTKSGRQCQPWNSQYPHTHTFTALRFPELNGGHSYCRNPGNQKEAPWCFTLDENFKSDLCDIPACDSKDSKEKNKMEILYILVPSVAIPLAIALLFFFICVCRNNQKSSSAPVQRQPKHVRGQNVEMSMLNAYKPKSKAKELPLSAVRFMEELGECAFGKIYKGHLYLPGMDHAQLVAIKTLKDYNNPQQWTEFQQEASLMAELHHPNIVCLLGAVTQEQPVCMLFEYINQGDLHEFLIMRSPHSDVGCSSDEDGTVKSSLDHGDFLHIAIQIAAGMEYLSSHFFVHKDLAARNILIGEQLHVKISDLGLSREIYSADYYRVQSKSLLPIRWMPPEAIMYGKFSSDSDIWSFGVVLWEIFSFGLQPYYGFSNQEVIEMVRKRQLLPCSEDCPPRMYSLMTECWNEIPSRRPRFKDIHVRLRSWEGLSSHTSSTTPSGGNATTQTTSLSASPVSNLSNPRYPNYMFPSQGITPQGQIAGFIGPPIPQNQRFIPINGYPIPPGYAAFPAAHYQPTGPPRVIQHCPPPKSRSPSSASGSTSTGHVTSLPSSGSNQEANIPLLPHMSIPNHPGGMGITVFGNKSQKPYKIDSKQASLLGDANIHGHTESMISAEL

- MFI [1]: 36200
- MFI [2]: 21600
- MFI [3]: 416000
- MFI [4]: 27100
- MFI [5]: 35200
- MFI [6]: 38700
- MFI [7]: 7960
- MFI [8]: 19900
B1: anti-human ROR1 (clone 2A2)-PE (antibody, from another filing, V domains shown)
VH: QVQLQQSGAELVRPGASVTLSCKASGYTFSDYEMHWVIQTPVHGLEWIGAIDPETGGTAYNQKFKGKAILTADKSSSTAYMELRSLTSEDSAVYYCTGYYDYDSFTYWGQGTLVTVSA
VL: DIVMTQSQKIMSTTVGDRVSITCKASQNVDAAVAWYQQKPGQSPKLLIYSASNRYTGVPDRFTGSGSGTDFTLTISNMQSEDLADYFCQQYDIYPYTFGGGTKLEIK
